Measurements published in patent publication US20220195012A1.

Key:
[1] = target: CP C3-convertase (C4b2a) (UniProt P0C0L4); assay: cell-based or functional assay
[2] = target: AP C3-convertase (C3bBb) (UniProt P01024); assay: cell-based or functional assay
Sequence of AP C3-convertase (C3bBb) (P01024 23-667 limits assumed, chain 1 of 3): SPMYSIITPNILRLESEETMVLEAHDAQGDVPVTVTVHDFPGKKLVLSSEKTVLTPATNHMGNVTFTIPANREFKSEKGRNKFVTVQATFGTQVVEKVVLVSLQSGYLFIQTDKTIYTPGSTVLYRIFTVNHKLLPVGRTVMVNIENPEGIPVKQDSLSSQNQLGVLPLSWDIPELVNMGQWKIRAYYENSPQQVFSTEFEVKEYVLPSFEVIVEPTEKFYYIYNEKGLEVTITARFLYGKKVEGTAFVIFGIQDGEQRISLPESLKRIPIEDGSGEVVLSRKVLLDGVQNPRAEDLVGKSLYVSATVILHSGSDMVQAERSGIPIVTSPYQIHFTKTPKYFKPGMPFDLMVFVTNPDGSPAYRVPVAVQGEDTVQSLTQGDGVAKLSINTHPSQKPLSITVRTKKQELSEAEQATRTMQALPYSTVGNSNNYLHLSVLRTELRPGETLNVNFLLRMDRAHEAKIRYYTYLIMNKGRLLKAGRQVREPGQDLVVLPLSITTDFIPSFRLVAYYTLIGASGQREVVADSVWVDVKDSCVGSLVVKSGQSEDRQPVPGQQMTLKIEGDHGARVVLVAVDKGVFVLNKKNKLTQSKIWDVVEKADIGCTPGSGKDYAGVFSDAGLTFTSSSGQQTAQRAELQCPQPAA
Sequence of AP C3-convertase (C3bBb) (P01024 749-1663 limits assumed, chain 2 of 3): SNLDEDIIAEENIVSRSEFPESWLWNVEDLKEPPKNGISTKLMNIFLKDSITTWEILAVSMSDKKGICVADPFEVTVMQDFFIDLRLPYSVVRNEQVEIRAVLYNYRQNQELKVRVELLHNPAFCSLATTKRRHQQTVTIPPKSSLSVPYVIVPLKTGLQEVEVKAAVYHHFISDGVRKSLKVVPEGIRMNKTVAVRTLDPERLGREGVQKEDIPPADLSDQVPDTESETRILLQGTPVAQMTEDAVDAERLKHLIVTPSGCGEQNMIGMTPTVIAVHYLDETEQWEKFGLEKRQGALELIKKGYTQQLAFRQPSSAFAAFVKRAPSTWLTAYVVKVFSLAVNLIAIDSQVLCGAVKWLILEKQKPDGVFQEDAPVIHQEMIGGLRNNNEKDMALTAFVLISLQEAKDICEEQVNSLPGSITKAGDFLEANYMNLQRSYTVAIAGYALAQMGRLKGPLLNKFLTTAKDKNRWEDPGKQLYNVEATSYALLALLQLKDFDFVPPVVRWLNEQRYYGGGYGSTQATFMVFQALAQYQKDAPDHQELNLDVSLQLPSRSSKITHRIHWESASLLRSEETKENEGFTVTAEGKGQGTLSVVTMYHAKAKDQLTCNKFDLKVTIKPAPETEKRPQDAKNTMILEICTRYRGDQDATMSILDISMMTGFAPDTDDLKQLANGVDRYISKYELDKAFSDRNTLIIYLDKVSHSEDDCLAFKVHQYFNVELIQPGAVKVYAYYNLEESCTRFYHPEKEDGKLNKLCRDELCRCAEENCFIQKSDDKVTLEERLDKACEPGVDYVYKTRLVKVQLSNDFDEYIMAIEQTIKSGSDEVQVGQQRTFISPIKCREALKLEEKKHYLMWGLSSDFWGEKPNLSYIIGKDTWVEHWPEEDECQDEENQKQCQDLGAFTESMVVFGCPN
Sequence of AP C3-convertase (C3bBb) (P00751 260-764 limits assumed, chain 3 of 3, further chain): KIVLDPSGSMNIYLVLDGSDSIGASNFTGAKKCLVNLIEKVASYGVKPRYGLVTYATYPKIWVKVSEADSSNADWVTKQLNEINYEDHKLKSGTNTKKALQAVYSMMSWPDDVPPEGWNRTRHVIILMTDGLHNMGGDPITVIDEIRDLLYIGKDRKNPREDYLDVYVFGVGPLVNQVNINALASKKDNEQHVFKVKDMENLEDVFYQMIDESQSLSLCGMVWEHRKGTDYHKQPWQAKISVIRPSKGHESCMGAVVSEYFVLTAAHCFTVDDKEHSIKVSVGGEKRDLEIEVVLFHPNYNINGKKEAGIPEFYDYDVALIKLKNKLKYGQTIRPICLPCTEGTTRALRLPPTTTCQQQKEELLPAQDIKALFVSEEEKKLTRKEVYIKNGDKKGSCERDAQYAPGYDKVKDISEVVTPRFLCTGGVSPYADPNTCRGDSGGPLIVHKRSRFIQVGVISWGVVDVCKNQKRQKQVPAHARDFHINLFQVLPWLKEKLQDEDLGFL

Sequence of CP C3-convertase (C4b2a) (P0C0L4 757-1446 limits assumed, chain 1 of 4): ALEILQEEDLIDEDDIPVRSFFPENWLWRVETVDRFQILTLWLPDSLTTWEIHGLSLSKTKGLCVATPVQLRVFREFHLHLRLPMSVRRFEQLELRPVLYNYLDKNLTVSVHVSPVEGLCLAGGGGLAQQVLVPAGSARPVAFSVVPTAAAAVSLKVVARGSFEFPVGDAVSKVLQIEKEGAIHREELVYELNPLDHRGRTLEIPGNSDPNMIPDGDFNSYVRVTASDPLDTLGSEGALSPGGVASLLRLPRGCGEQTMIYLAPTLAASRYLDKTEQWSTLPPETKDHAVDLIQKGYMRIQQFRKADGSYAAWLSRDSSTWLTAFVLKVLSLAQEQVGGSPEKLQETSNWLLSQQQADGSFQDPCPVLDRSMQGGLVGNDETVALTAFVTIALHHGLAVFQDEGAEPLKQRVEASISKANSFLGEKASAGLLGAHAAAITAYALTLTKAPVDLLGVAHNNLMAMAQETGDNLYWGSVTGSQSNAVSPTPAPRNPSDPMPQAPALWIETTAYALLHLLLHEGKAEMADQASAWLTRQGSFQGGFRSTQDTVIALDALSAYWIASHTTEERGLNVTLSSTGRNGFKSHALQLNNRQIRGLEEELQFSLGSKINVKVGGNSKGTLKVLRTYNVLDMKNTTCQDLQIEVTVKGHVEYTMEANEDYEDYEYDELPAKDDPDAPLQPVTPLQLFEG
Sequence of CP C3-convertase (C4b2a) (P0C0L4 20-675 limits assumed, chain 2 of 4): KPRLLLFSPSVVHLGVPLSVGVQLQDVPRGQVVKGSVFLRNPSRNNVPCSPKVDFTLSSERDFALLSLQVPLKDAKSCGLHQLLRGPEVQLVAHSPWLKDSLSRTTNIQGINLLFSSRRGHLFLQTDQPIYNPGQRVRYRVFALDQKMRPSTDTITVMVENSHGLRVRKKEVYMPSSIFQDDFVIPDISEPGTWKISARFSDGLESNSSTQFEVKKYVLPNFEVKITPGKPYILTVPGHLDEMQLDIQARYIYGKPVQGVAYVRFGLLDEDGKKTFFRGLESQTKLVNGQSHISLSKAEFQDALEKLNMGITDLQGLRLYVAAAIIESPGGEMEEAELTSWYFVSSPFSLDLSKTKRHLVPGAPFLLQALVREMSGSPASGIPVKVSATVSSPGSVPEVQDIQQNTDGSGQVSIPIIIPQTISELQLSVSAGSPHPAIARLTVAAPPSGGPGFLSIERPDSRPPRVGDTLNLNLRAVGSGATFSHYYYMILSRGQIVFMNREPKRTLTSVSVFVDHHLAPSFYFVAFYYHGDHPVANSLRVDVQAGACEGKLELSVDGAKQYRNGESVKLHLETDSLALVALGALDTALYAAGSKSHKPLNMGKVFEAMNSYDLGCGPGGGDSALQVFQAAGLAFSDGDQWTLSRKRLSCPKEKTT
Sequence of CP C3-convertase (C4b2a) (P0C0L4 1454-1744 limits assumed, chain 3 of 4): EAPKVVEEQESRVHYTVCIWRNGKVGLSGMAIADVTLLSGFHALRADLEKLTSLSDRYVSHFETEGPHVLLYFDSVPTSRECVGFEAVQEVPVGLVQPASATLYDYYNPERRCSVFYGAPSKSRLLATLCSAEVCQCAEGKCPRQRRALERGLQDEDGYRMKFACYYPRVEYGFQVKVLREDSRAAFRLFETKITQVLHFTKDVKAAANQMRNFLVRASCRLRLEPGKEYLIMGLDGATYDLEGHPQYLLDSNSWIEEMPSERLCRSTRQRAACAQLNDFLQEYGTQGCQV
Sequence of CP C3-convertase (C4b2a) (P06681 244-752 limits assumed, chain 4 of 4, further chain): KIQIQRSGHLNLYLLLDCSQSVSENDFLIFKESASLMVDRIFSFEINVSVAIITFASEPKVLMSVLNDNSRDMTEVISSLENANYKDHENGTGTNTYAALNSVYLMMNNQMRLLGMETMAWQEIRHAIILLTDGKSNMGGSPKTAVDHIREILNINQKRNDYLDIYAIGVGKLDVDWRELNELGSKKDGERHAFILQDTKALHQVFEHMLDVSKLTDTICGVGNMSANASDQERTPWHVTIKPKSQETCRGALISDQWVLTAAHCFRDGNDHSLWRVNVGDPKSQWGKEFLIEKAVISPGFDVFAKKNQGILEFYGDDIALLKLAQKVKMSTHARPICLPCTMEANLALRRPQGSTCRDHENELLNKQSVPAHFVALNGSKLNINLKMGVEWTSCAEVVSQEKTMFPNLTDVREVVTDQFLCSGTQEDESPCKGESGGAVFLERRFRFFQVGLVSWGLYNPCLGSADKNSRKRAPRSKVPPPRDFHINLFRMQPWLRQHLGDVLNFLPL
Sequence of D2D3 (DAF deletion mutant D2-D3) (P08174 98-224 limits assumed, stated change not applied): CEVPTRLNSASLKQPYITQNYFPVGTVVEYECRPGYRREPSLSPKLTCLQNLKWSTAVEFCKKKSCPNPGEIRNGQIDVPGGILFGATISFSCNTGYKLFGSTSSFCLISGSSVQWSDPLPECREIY

Row | CP-DAA IC50 [1] [µM] | Relative CP-DAA [1] | AP-DAA IC50 [2] [µM] | Relative AP-DAA [2] | AP-DAA, fold reduction compared to DAF [2] [fold] | Substance
1 | 10.9 | < 0.3 | > 0.01 | < 0.2 |  | D2D3 (DAF deletion mutant D2-D3) (from UniProt P08174 98-224)
2 | 5.7 | 0.4 | 0.0056 | 0.4 | 10 | D2D3D4M4 (DAF-MCP chimera)
